Measured values reported in article PMC8178753.

How the values were obtained:
[1] = tested on: PkKKT2a central domain (551-679) (Perkinsela sp. CCAP 1560/4); experiment: fluorescence anisotropy; details: fluorescein (6-FAMK) in place of T37 of forward strand; 25 mM Hepes pH 7.5, 50 mM NaCl, 1 mM TCEP; FA: 1 nM FAM-dsDNA, 20 min RT, read at 25°C; EMSA: 200 nM dsDNA, 0.78-30 µM protein, 30 min RT, native PAGE at 4°C
[2] = tested on: designed zinc finger (Jantz and Berg, 2010) (synthetic construct); experiment: fluorescence anisotropy; details: fluorescein (6-FAMK) in place of T9 of reverse strand; 25 mM Hepes pH 7.5, 50 mM NaCl, 1 mM TCEP; FA: 1 nM FAM-dsDNA, 20 min RT, read at 25°C; EMSA: 200 nM dsDNA, 0.78-30 µM protein, 30 min RT, native PAGE at 4°C

Sequence	Kd [1] [nM]	Kd [2] [nM]
AGGTAACTAGAAGAATTGTAATATTCTAAATGTTGATCCATTTGAATCAT (double strand) [50 mer 26% GC FAM (BA2216)]	500	
CGCAGATCCGCGGGGCCCGTGCCGACGCGCGGGCATTGTCCGTGAGGTGA (double strand) [50 mer 74% GC FAM (BA2218)]	500	
CAATATGTAAGGTGTTTTGGTGTAAAACACGCATTCTTGCATAACATGCA (double strand) [50 mer CEN FAM (BA1674)]	500	
CGATCGTTGAGGCAGAACCTGATCA (double strand) [designed DNA FAM (BA3083)]		8
